The values that follow come from patent US20240207432A1 (BIOSION, published 2024).

For test [1], the target named is T1, full length human TROP2 on 293F-TROP2 cells (human, UniProt P09758 27-323).
T1 construct: also called 293F-TROP2 cells (clone ID #3A8); cell surface TROP2
T1 sequence: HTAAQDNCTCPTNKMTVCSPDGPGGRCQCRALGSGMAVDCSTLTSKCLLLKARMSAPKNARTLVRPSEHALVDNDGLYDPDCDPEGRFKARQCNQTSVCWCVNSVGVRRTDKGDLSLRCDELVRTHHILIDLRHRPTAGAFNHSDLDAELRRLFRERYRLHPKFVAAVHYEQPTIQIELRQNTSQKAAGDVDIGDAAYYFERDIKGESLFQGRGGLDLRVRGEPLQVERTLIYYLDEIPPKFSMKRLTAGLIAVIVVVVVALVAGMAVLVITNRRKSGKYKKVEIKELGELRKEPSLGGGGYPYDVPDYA
Nature of the test: FACS on 293F-TROP2 cells, MFI. The protocol: The binding activity of the mouse anti-TROP2 antibodies to cell surface TROP2 proteins was tested by flow cytometry (FACS), using Biosion in-house prepared 293F-TROP2 cells (clone ID #3A8) stably expressing full length human TROP2s (uniprot #P09758, SEQ ID NO.: 71) on cell membrane. The 293F-TROP2 cells were prepared by transfecting 293F cells (Thermofisher Inc., Cat #11625019) with a pCMV-T-P plasmid inserted with human TROP2 coding sequence between EcoRI and XbaI sites, following the instruction of lipofectamine 3000 transfection reagent (Thermo Fisher).
The 293F-TROP2 cells were harvested from cell culture flasks, washed twice and re-suspended in phosphate buffered saline (PBS) containing 2% v/v Fetal Bovine Serum (FACS buffer). […] Following an incubation of 40 minutes at 4° C. in dark, cells were washed twice and re-suspended in FACS buffer. Fluorescence was measured using a Becton Dickinson FACS Canto II-HTS equipment, and the MFI (mean fluorescence intensity) was plotted against antibody concentration. Data was analyzed using Graphpad Prism software and EC₅₀ values were reported.

Test [2] deals with T2, human TROP2-his protein (human, UniProt P09758 27-274).
T2 construct: Biotin-labelled in the ELISAs, unlabelled analyte in Biacore; also called biotin-labeled human TROP2-his protein; biotin human Trop2-his
T2 sequence: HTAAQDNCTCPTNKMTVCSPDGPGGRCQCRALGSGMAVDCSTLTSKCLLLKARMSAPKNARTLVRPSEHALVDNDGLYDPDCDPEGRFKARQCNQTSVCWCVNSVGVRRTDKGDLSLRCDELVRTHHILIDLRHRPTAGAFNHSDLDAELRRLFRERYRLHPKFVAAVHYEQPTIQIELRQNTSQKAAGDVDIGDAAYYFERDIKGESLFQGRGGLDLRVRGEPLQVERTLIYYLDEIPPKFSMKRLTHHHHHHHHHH
As to the kind of experiment: epitope grouping ELISA, 15 ug/ml antibody premixed with biotin human TROP2-his; competitor: coated BM1. The protocol: Firstly, capture ELISA was performed to determine the concentration of biotin-labeled human Trop2 proteins appropriate for the epitope binning test. […] The plates were washed for 4 times, added with 100 μl/well of serially diluted biotin human Trop2-his proteins (SEQ ID NO: 67) in PBST with 2.5% non-fatty milk (starting from 1.3 μg/ml with a 5-fold serial dilution), and incubated for 40 min at 37° C. Then the plates were washed for 4 times and added with 100 μl/vell of HRP-streptavidin (Jackson Immuno Research, Cat #016-030-084). The plates were incubated for another 40 min at 37° C. Then the plates were washed again, and 100 μl/well TMB was added for color development at RT for 15 min followed by quenching with 50 μl 1M H₂SO₄. The OD values at 450 nm were read.
With the appropriate concentration determined above, epitope grouping ELISA was performed. […] ELISA plates were washed once with wash buffer (PBS+0.05% v/v Tween-20, PBST) and then blocked with 200 μl blocking buffer (5% w/w non-fatty milk in PBST) for 2 hours at 37° C. […] The mixtures were incubated at room temperature for 40 minutes. After plate washing for 4 times, the antibody/biotin-TROP2-his protein mixtures were added to the antibody coated plates, 100 μl per well, and incubated for another 40 min at 37° C. Then 100 μl/well of HRP-streptavidin was added and incubated for 40 min. Then OD₄₅₀ values were determined and the cross-competition capability was calculated (cross-competition capability of antibody X (%)=(OD₄₅₀ of Antibody X-[…] of Blank)/(OD₄₅₀ of no mAb-OD₄₃₀ of Blank)*100%).

Test [3] has as its target T2, human TROP2-his protein. Nature of the test: capture ELISA, antibody captured on anti-human IgG Fc coat, biotin human TROP2-his in solution, OD(450-630). On the procedure: Plates were washed once with wash buffer (PBS+0.05% v/v Tween-20, PBST) and then blocked with 200 μl/well blocking buffer (5% w/v non-fatty milk in PBST) for 2 hours at 37° C. […] Plates containing captured anti-TROP2 antibodies were incubated with biotin-labeled human TROP2-his protein (prepared in house, SEQ ID NO: 67, 56.7 ng/mL in 2.5% w/v non-fatty milk in PBST, 100 μl/well) for 40 minutes at 37° C., washed 4 times, and incubated with streptavidin conjugated HRP (1:10000 dilution in PBST, Jackson Immuno Research, Cat #016-030-084, 100 μl/well) for 40 minutes at 37° C. After a final wash, plates were incubated with 100 μl/well ELISA substrate TMB (Innoreagents, Cat #TMB-S-002) at room temperature. The reaction was stopped in 3-10 minutes at room temperature with 50 μl/well 1M H₂SO₄, and the absorbance of each well was read on a microplate reader using dual wavelength mode with 450 nm for TMB and 630 nm as the reference wavelength. The OD (450-630) values were plotted against antibody concentration. Data was analyzed using Graphpad Prism software and EC₅₀ values were reported.
For the Capture ELISA, AffiniPure F(ab′)₂ Fragment Goat Anti-Human IgG, Fcγ fragment specific (Jackson Immunoresearch, Cat #109-006-008) was used instead of AffiniPure Goat Anti-Mouse IgG, Fcγ fragment specific, 100 μl/well.
For orientation: In an ELISA, binding on a coated surface is turned into a signal by an enzyme label.

B1: benchmark (in house prepared sacituzumab) (antibody, human IgG1, kappa, V domains shown)
VH: SVQLQQSGSELKKPGASVKVSCKASGYTFTNYGMNWVKQAPGQGLKWMGWINTYTGEPTYTDDFKGRFAFSLDTSVSTAYLQISSLKADDTAVYFCARGGFGSSYWYFDVWGQGSLVTVSS
VL: DIQLTQSPSSLSASVGDRVSITCKASQDVSIAVAWYQQKPGKAPKLLIYSASYRYTGVPDRFSGSGSGTDFTLTISSLQPEDFAVYYCQQHYITPLTFGAGTKVEIKR
notes: also called BM; BM1
The EC50 is the concentration giving half of the maximal effect. A low value points to an effect from little substance. Regarding B1, the EC50 in test [1] was found to be 0.83 nM; with human TROP2-his protein [3], 0.316 nM. Moreover, in the test with human TROP2-his protein [2], the OD450 stood at 0.048 OD450.

B2: mouse antibody A1E4F7D4 (antibody, V domains shown)
VH: QVQLQQSGAELAKPGTSVKMSCEASGYSFTTHWIHWMKQRPGQGLEWIGTIFPSNAYAVYNQKFRDRAIMTADRSSTTAYIQLTGLTSEDSAVYYCARASYFDYWGQGTTLTVSS
VL: DILLTQSPATLSVSPGERVTFSCRASQNIGTSIHWFQQRTTGSPRLLIKYASESISGIPSRFSGSGSGTDFTLHINSVESEDIAHYYCQHSHSWPFTFGSGTKLEIQ
notes: Mouse monoclonal IgG purified from hybridoma supernatant; also called Mouse A1E4F7D4
B2 yielded a 50% effective concentration (EC50) in test [1] of 0.481 nM.

B3: mouse antibody C1B3B12D2 (antibody, V domains shown)
VH: QVQLQQSGPELVRPGTSVKMSCKAAGYTFTKFWIGWVKQRPGHGLEWIGNIYPGGAYINYNENFKGKATLTADTFSSTAYMQLNSLTSADSAIYYCAREGSSGYWGQGTTLTVSS
VL: DIVMTQSPSSLTVTAGEKVTLSCKCSQSLLNSGTQENYLTWYQQKPGQPPKMLIYWASIREPGVPDRFTGSGSGTDFTLTINNVQAEDLAVYYCQHDYSYPFTFGSGTKLEIK
notes: Mouse monoclonal IgG purified from hybridoma supernatant
The term EC50 (read off the curve) denotes the midpoint of the concentration-response curve. The low end stands for an effect from little substance, the high end for a need for much substance. For B3, the “EC50 (read off the curve)” value in test [1] is roughly 1 nM.

B4: mouse antibody A1E11A12D1 (antibody, V domains shown)
VH: QVQLQQSGAELARPGASVKLSCMASGYTFTTYGISWVRQRTGQGLEWIGQIYPGSDYSYCDEDFKGKATLTADKSSSTAYMQLSSLTSEDSAVYFCARASYFDYWGQGTTLTVSS
VL: DILLTQSPAILSVSPGERVSFSCRASQTIGTAIHWYQQRANGSPRLLIKYASESISGIPSRFSGSGSGTDFALSINTVESEDFAYYYCQQSNNWPFTFGGGTKLEIR
notes: as for B3
The molecule B4 yielded a half-maximal effective concentration (EC50) in test [1] of 0.78 nM.

B5: mouse antibody A1H3C5H8E12 (antibody, V domains shown)
VH: QVQLQQSGAELVRPGTSVKMSCKAAGYTFTNYWIDWVKQRPGHGLEWIGNIFPGGFYTNYNEKFKGKATLTADTSSSTAYMQLSSLTSEDSAIYYCARGGVFDYWGQGTTLTVSS
VL: DILLTQSPAILSVSPGERVSFSCRASQSIGTSIHWYQQRTNGSPRLLIKYASESISGIPSRFSGSGSGTDFTLSINSVESEDIADYYCQQSNSWPYTFGGGTKLEIK
notes: as for B3
For B5, the 50% effective concentration (EC50) in test [1] was 0.773 nM.

B6: huA1E4F7D4-V16 (antibody, human IgG1, kappa, V domains shown)
VH: QVQLVQSGAEVKKPGASVKVSCKASGYSFTTHWIHWVRQAPGQGLEWIGTIFPSNAYAVYNQKFRDRATMTADTSISTAYIELSRLRSDDTAVYYCARASYFDYWGQGTTVTVSS
VL: EIVLTQSPATLSLSPGERATLSCRASQNIGTSIHWFQQKPGGAPRLLIKYASESISGIPSRFSGSGSGTDFTLTISSLEPEDFAVYYCQHSHSWPFTFGQGTKLEIKR
notes: Positions of the X residues are given in the claims; also called humanized antibody huA1E4F7D4-V16
In the test with human TROP2-his protein [2], B6 registered an OD450 of 1.42 OD450. In the test with human TROP2-his protein [3], this molecule displayed an EC50 of 0.054 nM.
